In assay [1] the target is T1, interaction of Gal3 and APP695 (Homo sapiens, UniProt P17931).
T1 construct: purchased R&D Systems; QCB200349; QCB200352; host or cells: mammalian (R&D 8259-GA) or E. coli (QCB200349)
The assay is described as follows: Gal3-APP695 blocking ELISA. Type of assay: binding. As to the method:
To identify Gal3-targeted antibodies with the ability to block the interaction of Gal3 and APP695, purified Gal3 and APP695 proteins were incubated in the presence (or absence) of various Gal3-targeted or control antibodies, or without antibody, and protein interaction was evaluated by ELISA.
Human GAL3 (mammalian, R&D Systems, 8259-GA; E-coli derived, untagged, TrueBinding, QCB200349; or His-tagged, TrueBinding, QCB200352) was diluted in PBS (Corning, 21-030-CM) to a concentration of 4 μg/mL and added to the wells of a 96-well ELISA plate (Thermo Fisher, 44-2404-21). After incubating the plate at 4° C. overnight, the plate was washed three times with PBST (PBS with 0.05% Tween 20 [VWR, 0777]) and then blocked for an hour with 2% BSA (EMD Millipore, 126609) in PBST at room temperature with gentle rocking. Human APP695 (R&D Systems, 9937-AP) was biotinylated with EZ Link Sulfo-NHS-LC-Biotin (ThermoFisher Scientific, A39257) and desalted using a Zeba Spin Desalting Column (ThermoFisher Scientific, 89882), following the manufacturer's instructions. […] The reaction was stopped with 1M HCl (JT Baker, 5620-02) and read using a plate reader (Molecular Devices) at absorbance of 450 nm. Percent blockade of Gal3-APP695 interaction was calculated as the fraction of signal obtained in the absence of antibody with the background signal subtracted.

In a further assay the target is T2, human Gal3 (Homo sapiens, UniProt P17931).
T2 construct: purchased AcroBio (Acro Biosystems) GA3-H5129
T2 sequence (P17931 whole entry): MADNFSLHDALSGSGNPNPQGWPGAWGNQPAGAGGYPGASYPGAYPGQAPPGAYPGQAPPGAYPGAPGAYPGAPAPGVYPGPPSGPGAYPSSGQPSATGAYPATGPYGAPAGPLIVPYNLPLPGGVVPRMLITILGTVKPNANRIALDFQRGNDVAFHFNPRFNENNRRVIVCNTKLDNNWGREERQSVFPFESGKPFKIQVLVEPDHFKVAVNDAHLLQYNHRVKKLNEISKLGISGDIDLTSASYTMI
The assay is described as follows: Epitope binning assay, sandwich format, SPR-based Carterra LSA. To be noted: competitive binding for hGAL3. As to the method:
First, the purified antibodies were diluted to 10 μg/ml concentration in 10 mM NaOAc (pH 5.0) and then were covalently coupled via amine group to HC200M chip activated by EDC and S-NHS to immobilize antibodies to different positions of a 384-spot array. One hundred thirty-eight binning cycles were run on the array of immobilized antibodies. In each cycle, first, human Gal3 (AcroBio GA3-H5129) was injected over the entire array to bind to different antibodies (primary antibody), followed by one antibody (secondary antibody) selected among the panel of 150 anti-GAL3 antibodies tested. At the end of each cycle, the array was regenerated by 10 mM Glycine (pH 2.0) to remove bound antigen and secondary antibody from the array. The data analysis was done using the Epitope software by CarterraBio.

T1 sequence (P17931 2-250 limits assumed): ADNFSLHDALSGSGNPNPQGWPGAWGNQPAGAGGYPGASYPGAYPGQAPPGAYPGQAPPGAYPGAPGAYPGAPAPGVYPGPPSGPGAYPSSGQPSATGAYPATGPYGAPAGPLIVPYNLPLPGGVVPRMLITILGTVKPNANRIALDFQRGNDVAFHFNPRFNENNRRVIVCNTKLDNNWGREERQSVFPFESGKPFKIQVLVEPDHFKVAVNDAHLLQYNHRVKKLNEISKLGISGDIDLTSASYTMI

B1: F849C.8D12: anti-Gal3 antibody (antibody, V domains shown)
VH: EVQLQQSGPELVKPGSSVKISCKASRYTFTDYNMDWVKQSHGKRLEWIGYIYPNNGGTGYNQKFKGKATLTVDKSSSTAYMELRSLTSEDSAVYYCARSYYDGSYDAMDYWGQGTSVTVSS
VL: DIQMTQTTSSLSASLGDRVTISCSASQGISNYLNWYQQKPDGTVKLLIYYTSSLHSGVPSRFSGSGSGTDYSLTISNLEPEDIATYYCQQYSKLPRTFGGGTKLEI
modifications: misc_feature 1..363 849.8D12 VH nucleic acid; misc_feature 1..318 849.8D12 VL nucleic acid
notes: anti-Gal3 antibody
Consider B1, for which the “Blocking of Gal3-APP695 binding (in words)” value in assay [1] is “did not impact”.

B2: 846.2B11: anti-Gal3 antibody (antibody, V domains shown)
VH: QVQLQQSGPELVRPGALVKISCKASGYTFTSYDINWVKQRPGQGLEWIGWIYPGDGSTKYNEKFKGKATLTADKSSSTAYMQLSSLTSENSAVYFCAREAASNAMDYWGQGTSVTVSS
VL: DIVLTQSPASLGVSLGQRATISCRASKSVSTSGYSYMHWYQQKPGQPPKLLIYLASILESGVPARFSGSGSGTDFTLNIHPVEEEDAAIYYCQHSRELPLTFGAGTKLELK
modifications: misc_feature 1..354 846.2B11 VH nucleic acid; misc_feature 1..333 846.2B11 VL nucleic acid
notes: anti-Gal3 antibody
Consider B2, for which the Epitope bin result with human Gal3 was “bin 16”.
